{"source": "paper doi:10.1101/2020.08.31.274639", "biological_target": "SARS-CoV-2 main protease 3CLpro (SARS-CoV-2)", "assay": "crystal structure", "data": [{"substance": "SARS-CoV-2 main protease 3CLpro (enzyme)", "values": [{"measurement": "stoichiometry N", "value": 2}]}]}
